Experimental data published in patent publication US20150125470A1.
Residue numbers refer to the chain shown, from its start.

B1: h#24A3-H2/L3 (antibody, human IgG2, kappa, V domains shown)
VH: QVQLVQSGAEVKKPGASVKVSCKASGYTFPRYDVSWVRQAPGQGLEWMGVIHPGSGGTGYNEKFKARVTITADTSTSTAYMELSSLRSEDTAVYYCARRGLNSGYWFFDFWGQGTLVTVSS
VL: DIVMTQSPDSLAVSLGERATINCKASQNVGSNVDWYQQKPGQSPKLLIYESTNRYTGVPDRFTGSGSGTDFTFTISSLQAEDVAVYYCMQSNFFPFTFGQGTKVEIKR
B2: h#24A3-H2b/L2b (antibody, human IgG2, kappa, V domains shown)
VH: B1 VH with S103K
VL: B1 VL with T63S, F73L
B3: h#24A3-H2/L2 (antibody, human IgG2, kappa, V domains shown)
VH: B1 VH
VL: B1 VL with T63S
B4: h#24A3-H2/L1 (antibody, human IgG2, kappa, V domains shown)
VH: B1 VH
VL: B1 VL with S43P, T63S, F73L
B5: h#24A3-H2e/L3b (antibody, human IgG2, kappa, V domains shown)
VH: B1 VH with A72V, S103K
VL: B1 VL with F73L
B6: h#24A3-H2c/L3b (antibody, human IgG2, kappa, V domains shown)
VH: B1 VH with M48I, S103K
VL: B1 VL with F73L
B7: h#24A3-H2d/L3b (antibody, human IgG2, kappa, V domains shown)
VH: B1 VH with V68A, S103K
VL: B1 VL with F73L
B8: h#24A3-H2d/L1 (antibody, human IgG2, kappa, V domains shown)
VH: B1 VH with V68A, S103K
VL: B1 VL with S43P, T63S, F73L
B9: h#24A3-H2e/L1 (antibody, human IgG2, kappa, V domains shown)
VH: B1 VH with A72V, S103K
VL: B1 VL with S43P, T63S, F73L
B10: h#24A3-H2d/L2b (antibody, human IgG2, kappa, V domains shown)
VH: B1 VH with V68A, S103K
VL: B1 VL with T63S, F73L
B11: h#24A3-H2e/L2b (antibody, human IgG2, kappa, V domains shown)
VH: B1 VH with A72V, S103K
VL: B1 VL with T63S, F73L
B12: h#24A3-H2b/L1 (antibody, human IgG2, kappa, V domains shown)
VH: B1 VH with S103K
VL: B1 VL with S43P, T63S, F73L
B13: h#24A3-H2c/L1 (antibody, human IgG2, kappa, V domains shown)
VH: B1 VH with M48I, S103K
VL: B1 VL with S43P, T63S, F73L
B14: h#24A3-H2b/L3b (antibody, human IgG2, kappa, V domains shown)
VH: B1 VH with S103K
VL: B1 VL with F73L
B15: h#24A3-H2c/L2b (antibody, human IgG2, kappa, V domains shown)
VH: B1 VH with M48I, S103K
VL: B1 VL with T63S, F73L
B16: rat anti-human Siglec-15 monoclonal antibody #24A3 (antibody, rat IgG2a, V domains shown)
VH: QVQLQQSGAELTKPGSSVKISCKTSGYTFPRYDVSWIKQRPGQALEWIGVIHPGSGGTGYNEKFKAKATLAVDTSSSTAFMQLSSLTPEDTAVYYCARRGLNSGYWFFDFWGPGTLVTVSS
VL: DIVMTQSPTSMSISVGDRVTMNCKASQNVGSNVDWYQQKTGQSPKLLIYESTNRYTGVPDRFTGSGSGTDFTFTISNVQAEDLAVYYCMQSNFFPFTFGSGIKLEIKR
B17: human chimeric antibody of the rat anti-human Siglec-15 monoclonal antibody #24A3 (antibody, human IgG2, V domains shown)
VH: B16 VH
VL: B16 VL

biological target: human Siglec-15 V-set domain (human) (UniProt Q6ZMC9); test: SPR (Biacore T200), antibody captured via anti-human IgG, antigen as analyte, same manner as 10-1
Chain of UniProt Q6ZMC9 (Q6ZMC9 39-165 limits assumed, form in doubt): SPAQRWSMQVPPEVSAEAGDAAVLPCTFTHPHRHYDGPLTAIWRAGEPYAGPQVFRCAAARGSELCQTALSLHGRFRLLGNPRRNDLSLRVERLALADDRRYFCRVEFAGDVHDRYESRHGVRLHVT

Binder	Kd
B1	27 pM
B2	8.5 pM
B3	28 pM
B4	31 pM
B5	16 pM
B6	15 pM
B7	7.5 pM
B8	4.5 pM
B9	6.9 pM
B10	10 pM
B11	18 pM
B12	9.8 pM
B13	10 pM
B14	7.7 pM
B15	13 pM

biological target: human Siglec-15 V-set domain (human) (UniProt Q6ZMC9); test: SPR (Biacore T200), ratio of KD values, reference rat #32A1

Binder	fold affinity against #32A1
B16	2 fold

biological target: human Siglec-15 V-set domain (human) (UniProt Q6ZMC9); test: SPR (Biacore T200), antibody captured via immobilized anti-mouse IgG antibody, antigen as analyte, 1:1 model

Binder	Kd
B16	70 pM

biological target: human Siglec-15 V-set domain (human) (UniProt Q6ZMC9); test: SPR (Biacore T200), antibody captured via immobilized anti-human IgG antibody, antigen as analyte, 1:1 model

Binder	Kd
B17	17 pM
